Results on 32 variants are retold here after the RNAGym collection of RNA variant scans (doi:10.7554/elife.80360).

The labels stand for the following.
B1: HDV Ribozyme (parent)
chain: GGCCGGCAUGGUCCCAGCCUCCUCGCUGGCGCCGGCUGGGCAACAUUCCGAGGGGACCGUCCCCUCGGUAAUGGCGAAUGGGACCCA

Variants of B1 are the subject of this series. The series can be described thus: self-cleavage, relative activity (ratio to wild type); higher = more cleavage; co-transcriptional.
GGCCGGCAUGGUCCCAGCCUGCUCGCUGGCGCCGGCUGGGCAACAUUCCGAGGGGGCCGUCCCCUCGGUAAUGGCGAAUGGGACCCA [C21G A56G]: the self-cleavage was determined as 0.0791. Under GGCCGGCAUGGUCCCAGCCUGCUCGCUGGCGCCGGCUGGGCAACAUUCCGAGGGGUCCGUCCCCUCGGUAAUGGCGAAUGGGACCCA [C21G A56U] stands 0.116; under GGCCGGCAUGGUCCCAGCCUGCUCGCUAGCGCCGGCUGGGCAACAUUCCGAGGGGACCGUCCCCUCGGUAAUGGCGAAUGGGACCCA [C21G G28A], 0.0744. The value for GGCCGGCAUGGUCCCAGCCUGCUCGCUCGCGCCGGCUGGGCAACAUUCCGAGGGGACCGUCCCCUCGGUAAUGGCGAAUGGGACCCA [C21G G28C] was 0.0755. Consider GGCCGGCAUGGUCCCAGCCUGCUCGCUGGCACCGGCUGGGCAACAUUCCGAGGGGACCGUCCCCUCGGUAAUGGCGAAUGGGACCCA [C21G G31A], for which the self-cleavage worked out at 0.18. Under GGCCGGCAUGGUCCCAGCCUGCUCGCUGGCGCCGGCUGGGCAACAUUCCGAGGGGACCGUACCCUCGGUAAUGGCGAAUGGGACCCA [C21G C61A] stands 0. In the case of GGCCGGCAUGGUCCCAGCCUGCUCGCUGGCGCCGGCUGGGCAACAUUCCGAGGGGACCGUGCCCUCGGUAAUGGCGAAUGGGACCCA [C21G C61G], the self-cleavage was found to be 0.0386. In the case of GGCCGGCAUGGUCCCAGCCUGCUCGCUGGCGCCGGCUGGGCAACAUUCCGAGGGGACCGUCCCCUCGGUAAUGGCGACUGGGACCCA [C21G A78C], the self-cleavage is 0.0462. Take GGCCGGCAUGGUCCCAGCCUGCUCGCUGGCGCCGGCUGGGCAACAUUCCGAGGGGACCGUCCCCUCGGUAAUGGCGAGUGGGACCCA [C21G A78G]: the self-cleavage was found to be 0.135. As for GGCCGGCAUGGUCCCAGCCUGCUCGCUGGCGCCGGCUGGGCAACAUUCCGAGGGGACCGUCCCCUCGGUAAUGGCGGAUGGGACCCA [C21G A77G], the self-cleavage was 0.0386. On to GGCCGGCAUGGUCCCAGCCUGCUCGCUGGCGCCGGCUGGGCAACAUUCCGAGGGGACCGUCCCCUCGGUAAUGGCGCAUGGGACCCA [C21G A77C], for which the self-cleavage came out at 0.0536. Take GGCCGGCAUGGUCCCAGCCUGCUCGCUGGCGCCGGCUGGGCAAGAUUCCGAGGGGACCGUCCCCUCGGUAAUGGCGAAUGGGACCCA [C21G C44G]: the self-cleavage was 0.141. The value for GGCCGGCAUGGUCCCAGCCUGCUCCCUGGCGCCGGCUGGGCAACAUUCCGAGGGGACCGUCCCCUCGGUAAUGGCGAAUGGGACCCA [C21G G25C] was 0.0489; that for GGCCGGCAUGGUCCCAGCCUGCUCUCUGGCGCCGGCUGGGCAACAUUCCGAGGGGACCGUCCCCUCGGUAAUGGCGAAUGGGACCCA [C21G G25U] was 0; that for GGCCGGCAUGGUCCCAGCCUGGUCGCUGGCGCCGGCUGGGCAACAUUCCGAGGGGACCGUCCCCUCGGUAAUGGCGAAUGGGACCCA [C21G C22G] was 0.

Turning to GGCCGGCAUGGUCCCAGCCUGUUCGCUGGCGCCGGCUGGGCAACAUUCCGAGGGGACCGUCCCCUCGGUAAUGGCGAAUGGGACCCA [C21G C22U], the self-cleavage was 0.0519.

As to GGCCGGCAUGGUCCCAGCCUGAUCGCUGGCGCCGGCUGGGCAACAUUCCGAGGGGACCGUCCCCUCGGUAAUGGCGAAUGGGACCCA [C21G C22A], the self-cleavage turned out to be 0.0396. Regarding GGCCGGCAUGGUCCCAGCCUGCUCGCUGGCGGCGGCUGGGCAACAUUCCGAGGGGACCGUCCCCUCGGUAAUGGCGAAUGGGACCCA [C21G C32G], the self-cleavage stood at 0.19. Take GGCCGGCAUGGUCCCAGCCUGCUCGCUGGCGACGGCUGGGCAACAUUCCGAGGGGACCGUCCCCUCGGUAAUGGCGAAUGGGACCCA [C21G C32A]: the self-cleavage amounted to 0.0415. As for GGCCGGCAUGGUCCCAGCCUGCUCGCUGGCGCCGGCUGGGCAACAUUCCGAGGGGACCGUCCCCUCGGUAAUGGCGAAUGGGUCCCA [C21G A83U], the self-cleavage came out at 0.0875. GGCCGGCAUGGUCCCAGCCUGCUCGCUGGCGCCGGCUAGGCAACAUUCCGAGGGGACCGUCCCCUCGGUAAUGGCGAAUGGGACCCA [C21G G38A]: the self-cleavage turned out to be 0.0339. Under GGCCGGCAUGGUCCCAGCCUGCUCGCUGGCGCCGGCUUGGCAACAUUCCGAGGGGACCGUCCCCUCGGUAAUGGCGAAUGGGACCCA [C21G G38U] stands 0.0702; under GGCCGGCAUGGUCCCAGCCUGCUCGCUGGCGCCGGCUGGGCAACAUUCCGUGGGGACCGUCCCCUCGGUAAUGGCGAAUGGGACCCA [C21G A51U], 0.0354; under GGCCGGCAUGGUCCCAGCCUGCUCGCUGGCGCCGGCUGGGCAACAUUCCGGGGGGACCGUCCCCUCGGUAAUGGCGAAUGGGACCCA [C21G A51G], 0.131.

Take GGCCGGCAUGGUCCCAGCCUGCUCGGUGGCGCCGGCUGGGCAACAUUCCGAGGGGACCGUCCCCUCGGUAAUGGCGAAUGGGACCCA [C21G C26G]: the self-cleavage is 0.0723. Consider GGCCGGCAUGGUCCCAGCCUGCUCGCUGGCGCCGGCUGGGCAACAUUCCGAGGGGACCGUCCCCUCGGUAAUGGGGAAUGGGACCCA [C21G C75G], for which the self-cleavage amounted to 0.0426.

Regarding GGCCGGCAUGGUCCCAGCCUGCUCGCUGGCGCCGGCUGGGCUACAUUCCGAGGGGACCGUCCCCUCGGUAAUGGCGAAUGGGACCCA [C21G A42U], the self-cleavage came out at 0.0437.

Take GGCCGGCAUGGUCCCAGCCUGCUCGCUGGCGCCGGCUGGGCGACAUUCCGAGGGGACCGUCCCCUCGGUAAUGGCGAAUGGGACCCA [C21G A42G]: the self-cleavage was determined as 0.0573. Take GGCCGGCAUGGUCCCAGCCUGCUCGCUGGCGCCGGCUGGGAAACAUUCCGAGGGGACCGUCCCCUCGGUAAUGGCGAAUGGGACCCA [C21G C41A]: the self-cleavage was found to be 0.0573. Under GGCCGGCAUGGUCCCAGCCUGCUCGCUGGCGCCGGCUGGGCAACAUUCCGAGGGGACCGUCCCCUGGGUAAUGGCGAAUGGGACCCA [C21G C66G] stands 0; under GGCCGGCAUGGUCCCAGCCUGCUCGCUGGCGCCGGCUGGGCAACAUUCCGAGGGGACCGUCCCCUAGGUAAUGGCGAAUGGGACCCA [C21G C66A], 0.0739; under GGCCGGCAUGGUCCCAGCCUGCUCGCUGGCGCCGGCUGGGCAACAUUCCGAGGGGACCGUCCCCUCGGUAAUGGCGAAUGGGACGCA [C21G C85G], 0.219.
